In PMC3082530 (2011):

What was measured:
subtilisin Carlsberg [1] = target: T1, subtilisin Carlsberg (Bacillus licheniformis, UniProt P00780); test: ITC
T1 chain: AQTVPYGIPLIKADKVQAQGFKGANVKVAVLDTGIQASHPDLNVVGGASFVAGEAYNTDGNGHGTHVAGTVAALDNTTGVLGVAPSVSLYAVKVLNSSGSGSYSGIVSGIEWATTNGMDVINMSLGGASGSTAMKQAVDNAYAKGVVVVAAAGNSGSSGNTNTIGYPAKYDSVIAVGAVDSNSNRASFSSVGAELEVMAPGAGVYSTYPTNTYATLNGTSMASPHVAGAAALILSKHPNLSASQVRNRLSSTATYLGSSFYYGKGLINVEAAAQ

subtilisin Carlsberg [2] = target: T1, subtilisin Carlsberg; test: ITC; given as Ka

Kd (subtilisin Carlsberg [1]): 500 µM | Kd (subtilisin Carlsberg [2]): 526 µM
B1: VCTEEY peptide (CrSPI-1 domain 2 RSL) (peptide)
chain: VCTEEY
